Test results reported in the supplement of paper PMC9112550, “Optimization of the antimicrobial peptide Bac7 by deep mutational scanning” (BMC Biology, 2022).

The sequences below were run on Escherichia coli TOP10 (assay: shrunken log2 fold change of peptide-encoding DNA abundance (4.5 h post-induction vs induction); higher = less antimicrobial activity (less host growth inhibition)). Conditions: time post-induction: 4.5 h; library: site-saturation at positions 5, 18, 19, 20.
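Note: peptides expressed intracellularly from a pBAD plasmid library in pooled LB shake-flask culture, induced with 0.3% L-arabinose, DNA abundance read by NGS, three biological replicates, DESeq2 with apeglm shrinkage.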

In order of rising “shrunken log2 fold change” value:
1. RRIRYRPPRLPRPRPRPTIHPRP  -1.2
2. RRIRYRPPRLPRPRPRPFVLPRP  -0.855
3. RRIRIRPPRLPRPRPRPYIKPRP  -0.684
4. RRIRFRPPRLPRPRPRPLYNPRP  -0.644
5. RRIRVRPPRLPRPRPRPHHHPRP  -0.611
6. RRIRCRPPRLPRPRPRPILHPRP  -0.575
7. RRIRCRPPRLPRPRPRPNLQPRP  -0.506
8. RRIRHRPPRLPRPRPRPLETPRP  -0.47
9. RRIRERPPRLPRPRPRPENHPRP  -0.455
10. RRIRCRPPRLPRPRPRPNLSPRP  -0.431
11. RRIRERPPRLPRPRPRPHPWPRP  -0.392
12. RRIRCRPPRLPRPRPRPLLNPRP  -0.39
13. RRIRYRPPRLPRPRPRPNEGPRP  -0.363
14. RRIRLRPPRLPRPRPRPCKIPRP  -0.357
15. RRIRVRPPRLPRPRPRPMTHPRP  -0.352
16. RRIRPRPPRLPRPRPRPGDKPRP  -0.307
17. RRIRYRPPRLPRPRPRPGSRPRP  -0.3
18. RRIRHRPPRLPRPRPRPYSFPRP  -0.299
19. RRIRTRPPRLPRPRPRPFTIPRP  -0.293
20. RRIRHRPPRLPRPRPRPLQAPRP  -0.279
21. RRIRCRPPRLPRPRPRPNHMPRP  -0.255
22. RRIRWRPPRLPRPRPRPCFHPRP  -0.247
23. RRIRWRPPRLPRPRPRPKIHPRP  -0.23
24. RRIRLRPPRLPRPRPRPMSQPRP  -0.219
25. RRIRERPPRLPRPRPRPKFLPRP  -0.219
26. RRIRERPPRLPRPRPRPIDLPRP  -0.219
27. RRIRQRPPRLPRPRPRPICNPRP  -0.211
28. RRIRHRPPRLPRPRPRPCRHPRP  -0.204
29. RRIRRRPPRLPRPRPRPFYYPRP  -0.204
30. RRIRCRPPRLPRPRPRPDSQPRP  -0.203
31. RRIRIRPPRLPRPRPRPFTHPRP  -0.182
32. RRIRSRPPRLPRPRPRPLISPRP  -0.173
33. RRIRYRPPRLPRPRPRPLFLPRP  -0.171
34. RRIRHRPPRLPRPRPRPMICPRP  -0.163
35. RRIRNRPPRLPRPRPRPTWMPRP  -0.155
36. RRIRMRPPRLPRPRPRPHNNPRP  -0.153
37. RRIRVRPPRLPRPRPRPSVMPRP  -0.15
38. RRIRLRPPRLPRPRPRPDYFPRP  -0.146
39. RRIRIRPPRLPRPRPRPHQQPRP  -0.132
40. RRIRQRPPRLPRPRPRPMFIPRP  -0.129
41. RRIRIRPPRLPRPRPRPQARPRP  -0.115
42. RRIRYRPPRLPRPRPRPSLCPRP  -0.109
43. RRIRLRPPRLPRPRPRPTITPRP  -0.0781
44. RRIRTRPPRLPRPRPRPNWHPRP  -0.0773
45. RRIRARPPRLPRPRPRPNMFPRP  -0.0712
46. RRIRNRPPRLPRPRPRPFEFPRP  -0.0681
47. RRIRTRPPRLPRPRPRPNMVPRP  -0.0672
48. RRIRQRPPRLPRPRPRPSRHPRP  -0.0666
49. RRIRDRPPRLPRPRPRPFDKPRP  -0.0665
50. RRIRFRPPRLPRPRPRPVDCPRP  -0.0595
51. RRIRCRPPRLPRPRPRPFGKPRP  -0.0592
52. RRIRLRPPRLPRPRPRPHNWPRP  -0.0581
53. RRIRRRPPRLPRPRPRPWIEPRP  -0.0568
54. RRIRNRPPRLPRPRPRPEKDPRP  -0.0532
55. RRIRHRPPRLPRPRPRPKREPRP  -0.0483
56. RRIRCRPPRLPRPRPRPTRKPRP  -0.0442
57. RRIRIRPPRLPRPRPRPMIVPRP  -0.0322
58. RRIRLRPPRLPRPRPRPYVLPRP  -0.0278
59. RRIRNRPPRLPRPRPRPSKEPRP  -0.0243
60. RRIRKRPPRLPRPRPRPACNPRP  -0.0224
61. RRIRVRPPRLPRPRPRPCEGPRP  -0.0149
62. RRIRPRPPRLPRPRPRPGQMPRP  -0.0125
63. RRIRERPPRLPRPRPRPNVLPRP  -0.0106
64. RRIRNRPPRLPRPRPRPPVIPRP  -0.00994
65. RRIRKRPPRLPRPRPRPQAGPRP  -0.00963
66. RRIRHRPPRLPRPRPRPTRCPRP  -0.00896
67. RRIRKRPPRLPRPRPRPKACPRP  -0.00804
68. RRIRHRPPRLPRPRPRPLSHPRP  -0.00358
69. RRIRNRPPRLPRPRPRPCSIPRP  -0.000921
70. RRIRHRPPRLPRPRPRPNQPPRP  0.00401
71. RRIRPRPPRLPRPRPRPDEDPRP  0.00574
72. RRIRPRPPRLPRPRPRPIPSPRP  0.00576
73. RRIRERPPRLPRPRPRPHGYPRP  0.0062
74. RRIRSRPPRLPRPRPRPKVVPRP  0.00912
75. RRIRMRPPRLPRPRPRPQWSPRP  0.0117
76. RRIRERPPRLPRPRPRPEQGPRP  0.0117
77. RRIRPRPPRLPRPRPRPMESPRP  0.0152
78. RRIRDRPPRLPRPRPRPMTCPRP  0.0184
79. RRIRIRPPRLPRPRPRPWIDPRP  0.0218
80. RRIRPRPPRLPRPRPRPAIRPRP  0.0298
81. RRIRGRPPRLPRPRPRPIEFPRP  0.0349
82. RRIRWRPPRLPRPRPRPNWTPRP  0.0351
83. RRIRHRPPRLPRPRPRPCRPPRP  0.0355
84. RRIRDRPPRLPRPRPRPGRQPRP  0.0393
85. RRIRHRPPRLPRPRPRPVWHPRP  0.0453
86. RRIRNRPPRLPRPRPRPNAMPRP  0.0458
87. RRIRVRPPRLPRPRPRPTYWPRP  0.0478
88. RRIRRRPPRLPRPRPRPLCLPRP  0.0544
89. RRIRNRPPRLPRPRPRPPSTPRP  0.0609
90. RRIRLRPPRLPRPRPRPVFFPRP  0.0612
91. RRIRQRPPRLPRPRPRPSKNPRP  0.0658
92. RRIRMRPPRLPRPRPRPDLHPRP  0.0663
93. RRIRDRPPRLPRPRPRPRELPRP  0.0713
94. RRIRRRPPRLPRPRPRPHWHPRP  0.0772
95. RRIRQRPPRLPRPRPRPTAPPRP  0.0785
96. RRIRTRPPRLPRPRPRPKESPRP  0.0841
97. RRIRGRPPRLPRPRPRPSMPPRP  0.0931
98. RRIRWRPPRLPRPRPRPGHPPRP  0.0932
99. RRIRCRPPRLPRPRPRPYKKPRP  0.104
100. RRIRHRPPRLPRPRPRPGNYPRP  0.113
101. RRIRERPPRLPRPRPRPAHAPRP  0.117
102. RRIRRRPPRLPRPRPRPAVNPRP  0.125
103. RRIRPRPPRLPRPRPRPVSTPRP  0.13
104. RRIRQRPPRLPRPRPRPMAGPRP  0.132
105. RRIRPRPPRLPRPRPRPWWRPRP  0.14
106. RRIRTRPPRLPRPRPRPPRHPRP  0.152
107. RRIRERPPRLPRPRPRPWIGPRP  0.155
108. RRIRHRPPRLPRPRPRPGDLPRP  0.163
109. RRIRGRPPRLPRPRPRPRHYPRP  0.173
110. RRIRFRPPRLPRPRPRPWRCPRP  0.174
111. RRIRSRPPRLPRPRPRPRRTPRP  0.183
112. RRIRGRPPRLPRPRPRPWIVPRP  0.189
113. RRIRPRPPRLPRPRPRPERDPRP  0.195
114. RRIRSRPPRLPRPRPRPPWEPRP  0.198
115. RRIRARPPRLPRPRPRPMMNPRP  0.198
116. RRIRQRPPRLPRPRPRPWDFPRP  0.2
117. RRIRGRPPRLPRPRPRPCLKPRP  0.213
118. RRIRPRPPRLPRPRPRPNWTPRP  0.218
119. RRIRPRPPRLPRPRPRPVMCPRP  0.218
120. RRIRWRPPRLPRPRPRPPFSPRP  0.222
121. RRIRRRPPRLPRPRPRPRNVPRP  0.226
122. RRIRVRPPRLPRPRPRPVKYPRP  0.228
123. RRIRGRPPRLPRPRPRPFDNPRP  0.23
124. RRIRNRPPRLPRPRPRPCTDPRP  0.233
125. RRIRSRPPRLPRPRPRPAADPRP  0.252
126. RRIRNRPPRLPRPRPRPFMRPRP  0.269
127. RRIRTRPPRLPRPRPRPNPKPRP  0.27
128. RRIRLRPPRLPRPRPRPRLRPRP  0.285
129. RRIRFRPPRLPRPRPRPRDWPRP  0.308
130. RRIRARPPRLPRPRPRPVWHPRP  0.324
131. RRIRKRPPRLPRPRPRPLTVPRP  0.344
132. RRIRSRPPRLPRPRPRPLREPRP  0.369
133. RRIRIRPPRLPRPRPRPRWPPRP  0.379
134. RRIRWRPPRLPRPRPRPPELPRP  0.38
135. RRIRHRPPRLPRPRPRPKLWPRP  0.392
136. RRIRWRPPRLPRPRPRPKCWPRP  0.467
137. RRIRCRPPRLPRPRPRPKWGPRP  0.496
138. RRIRDRPPRLPRPRPRPAGAPRP  0.509
139. RRIRLRPPRLPRPRPRPSQGPRP  0.535
140. RRIRDRPPRLPRPRPRPLAPPRP  0.607
141. RRIRFRPPRLPRPRPRPTPSPRP  0.636
142. RRIRMRPPRLPRPRPRPGNPPRP  0.639
143. RRIRKRPPRLPRPRPRPPLGPRP  0.668
144. RRIRGRPPRLPRPRPRPKDEPRP  0.696
145. RRIRGRPPRLPRPRPRPKWDPRP  0.771
146. RRIRARPPRLPRPRPRPVHGPRP  0.785
147. RRIRPRPPRLPRPRPRPSRGPRP  0.839
148. RRIRLRPPRLPRPRPRPPRAPRP  0.875
149. RRIRGRPPRLPRPRPRPMYTPRP  0.876
150. RRIRYRPPRLPRPRPRPFNNPRP  2.81
